In US20120315277A1, “Compositions and Methods for the Therapy and Diagnosis of Influenza” (priority 2011, published 2012):
Where “and” joins values, the source holds several entries; their conditions need not be identical. Equal values may be shown once. Read-outs that look alike come from different tables or passages of the source.

B1: 8I10 (antibody, V domains shown)
VH: QVQLQESGPGLVKPSETLSLTCTVSGSSISNYYWSWIRQSPGKGLEWIGFIYYGGNTKYNPSLKSRVTISQDTSKSQVSLTMSSVTAAESAVYFCARASCSGGYCILDYWGQGTLVTVS
VL: DIQMTQSPSSLSASVGDRVTITCRASQNIYKYLNWYQQRPGKAPKGLISAASGLQSGVPSRFSGSGSGTDFTLTITSLQPEDFATYYCQQSYSPPLTFGGGTRVEIK
B2: 23K12 (antibody, V domains shown)
VH: EVQLVESGGGLVQPGGSLRISCAASGFTVSSNYMSWVRQAPGKGLEWVSVIYSGGSTYYADSVKGRFSFSRDNSKNTVFLQMNSLRAEDTAVYYCARCLSRMRGYGLDVWGQGTTVTVS
VL: DIQMTQSPSSLSASVGDRVTITCRTSQSISSYLNWYQQKPGKAPKLLIYAASSLQSGVPSRFSGSGSGTDFTLTISGLQPEDFATYYCQQSYSMPAFGQGTKLEIK

How the values were obtained:
[1] = tested on: H1N1 (A/Solomon Islands/06); experiment: H1N1 challenge IV at 10LD50 (Example 16); format: in vivo, mouse (balb/c); conditions: 10MLD50; antibody on days 3 and 5
[2] = tested on: H5N1 (A/Vietnam/1203/04, VN1203); design: species or system mouse (balb/c); conditions: mouse, in vivo
H1N1 (A/PR/8/34) = experiment: H1N1 challenge VI at 5LD50 (Example 18); format: in vivo, mouse (balb/c); conditions: 5MLD50; antibody 20 mg/kg days 1, 3, 5; oseltamivir 10 mg/kg four hours post-infection
[3] = tested on: H5N1 (A/Vietnam/1203/04, VN1203); design: species or system mouse (balb/c); conditions: mouse, in vivo; remark: listed apart in the source
[4] = tested on: H5N1 (A/Vietnam/1203/04, VN1203); design: species or system mouse (balb/c); conditions: mouse, in vivo; remark: listed apart in the source
H5N1 (VN1203/04) [5] = conditions: mouse, in vivo
[6] = tested on: H5N1 (A/Vietnam/1203/04, VN1203); design: species or system mouse (balb/c); conditions: mouse, in vivo; remark: listed apart in the source
H1N1 (A/NWS/33) = experiment: H1N1 challenge V at 2 or 4 LD50 (Example 17); format: in vivo, mouse (balb/c); conditions: antibody 20 mg/kg, oseltamivir 10 mg/kg bid
H5N1 (VN1203/04) [7] = tested on: H5N1 (VN1203/04); design: key to Liver: viral antigens: +++: many; ++: moderate; +: few; ±: rare; −: negative; key to Liver: pathological changes / Lung: pathological changes / Brain: pathological changes: +++: severe; ++: moderate; +: mild; ±: scant; −: not observed; conditions: mouse, in vivo
H5N1 (VN1203/04) [8] = tested on: H5N1 (VN1203/04); design: key: +++: severe; ++: moderate; +: mild; ±: scant; −: not observed; conditions: mouse, in vivo
H5N1 (VN1203/04) [9] = tested on: H5N1 (VN1203/04); design: key: +++: many; ++: moderate; +: few; ±: rare; −: negative; conditions: mouse, in vivo
[10] = biological target: M2 protein of influenza A/Puerto Rico/8/34 (H1N1) on cells (influenza A virus A/Puerto Rico/8/34 …, UniProt P06821 1-97); experiment: FACS, MDCK cells infected with A/Puerto Rico/8/34
[11] = biological target: T1, M2 protein on influenza A/Puerto Rico/8/34 (H1N1) virus particles (influenza A virus A/Puerto Rico/8/34 …, UniProt P06821 1-97); experiment: ELISA on purified A/Puerto Rico/8/34 virus
[12] = biological target: T2, M2 protein of influenza A/Fort Worth/1/50 (H1N1), expressed on 293 cells (influenza A virus A/Fort Worth/1/50 …); experiment: cell staining images, 293-HEK cells stably expressing M2
T2 chain: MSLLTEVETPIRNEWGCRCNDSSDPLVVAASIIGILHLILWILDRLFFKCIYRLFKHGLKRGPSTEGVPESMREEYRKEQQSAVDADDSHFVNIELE

[13] = biological target: truncated M2 peptide SEQ ID NO 311; experiment: peptide ELISA, 5 µg/mL
[14] = biological target: truncated M2 peptide SEQ ID NO 299; experiment: peptide ELISA, 5 µg/mL
[15] = biological target: truncated M2 peptide SEQ ID NO 305; experiment: peptide ELISA, 5 µg/mL
[16] = biological target: truncated M2 peptide SEQ ID NO 310; experiment: peptide ELISA, 5 µg/mL
[17] = biological target: truncated M2 peptide SEQ ID NO 314; experiment: peptide ELISA, 5 µg/mL
[18] = biological target: truncated M2 peptide SEQ ID NO 308; experiment: peptide ELISA, 5 µg/mL
[19] = biological target: truncated M2 peptide SEQ ID NO 315; experiment: peptide ELISA, 5 µg/mL
[20] = biological target: truncated M2 peptide SEQ ID NO 302; experiment: peptide ELISA, 5 µg/mL
[21] = biological target: truncated M2 peptide SEQ ID NO 301; experiment: peptide ELISA, 5 µg/mL
[22] = biological target: truncated M2 peptide SEQ ID NO 303; experiment: peptide ELISA, 5 µg/mL
[23] = biological target: truncated M2 peptide SEQ ID NO 309; experiment: peptide ELISA, 5 µg/mL
[24] = biological target: truncated M2 peptide SEQ ID NO 304; experiment: peptide ELISA, 5 µg/mL
[25] = biological target: truncated M2 peptide SEQ ID NO 271; experiment: peptide ELISA, 5 µg/mL
[26] = biological target: truncated M2 peptide SEQ ID NO 300; experiment: peptide ELISA, 5 µg/mL
M2 peptide SEQ ID NO 273 = experiment: peptide ELISA, 5 µg/mL
[27] = biological target: truncated M2 peptide SEQ ID NO 316; experiment: peptide ELISA, 5 µg/mL
[28] = biological target: truncated M2 peptide SEQ ID NO 306; experiment: peptide ELISA, 5 µg/mL
[29] = biological target: truncated M2 peptide SEQ ID NO 307; experiment: peptide ELISA, 5 µg/mL
[30] = biological target: truncated M2 peptide SEQ ID NO 313; experiment: peptide ELISA, 5 µg/mL
[31] = biological target: truncated M2 peptide SEQ ID NO 312; experiment: peptide ELISA, 5 µg/mL
[32] = biological target: truncated M2 peptide SEQ ID NO 298; experiment: peptide ELISA, 5 µg/mL
[33] = biological target: T1, M2 protein on influenza A/Puerto …; experiment: ELISA on A/PR/8 virus, normalised to 8i10 at 10 µg/ml [D00002 FIG. 2B]

| Molecule | EC50 (read off the curve) [10] | EC50 [11] | binding result [12] | ELISA A450 [13] | ELISA A450 [15] | ELISA A450 [16] | ELISA A450 [17] | ELISA A450 [19] | ELISA A450 [20] | ELISA A450 [21] | ELISA A450 [22] | ELISA A450 [24] | ELISA A450 [25] | ELISA A450 [26] | ELISA A450 [27] | ELISA A450 [28] | ELISA A450 [30] | ELISA A450 [31] | EC50 (read off the curve) [33] | also measured |
| --- | --- | --- | --- | --- | --- | --- | --- | --- | --- | --- | --- | --- | --- | --- | --- | --- | --- | --- | --- | --- |
| CCOC(=O)C1=C[C@@H](OC(CC)CC)[C@H](NC(C)=O)[C@@H](N)C1 [oseltamivir] |  |  |  |  |  |  |  |  |  |  |  |  |  |  |  |  |  |  |  | mice surviving until day 21 [1]: about 10%; protection from death (in words) [2]: completely protected mice; protection from weight loss (in words) [2]: completely protected mice; survival rate at day 15 [2]: 60%; weight remaining (in words) [2]: retained more weight; survival rate at day 21 (H1N1 (A/PR/8/34)): 80%; survival (in words) [3]: extinction of the population prior to the end of the therapy; survival rate at day 14 [4]: 20%; survival rate at day 14 (H5N1 (VN1203/04) [5]): 90% and 50%; survival rate at day 14 [6]: 20%; survival rate at day 21 (H1N1 (A/NWS/33); 2MLD50): 90%; survival rate at day 21 (H1N1 (A/NWS/33); 4MLD50): 100% |
| CCOC(=O)C1=C[C@@H](OC(CC)CC)[C@H](NC(C)=O)[C@@H](N)C1 [Osel] |  |  |  |  |  |  |  |  |  |  |  |  |  |  |  |  |  |  |  | Brain: pathological changes (H5N1 (VN1203/04) [7]): −/− and ++/++ and +/++; Liver: pathological changes (H5N1 (VN1203/04) [7]): −/−; Liver: viral antigens (H5N1 (VN1203/04) [7]): −/−; Lung: pathological changes (H5N1 (VN1203/04) [7]): +/+ and +/++ and ++/++; Brain: viral antigens (H5N1 (VN1203/04) [8]): ++/++ and +/++; Lung: viral antigens (H5N1 (VN1203/04) [8]): +/++ and ++/++; Brain: viral antigens (H5N1 (VN1203/04) [9]): −/−; Lung: viral antigens (H5N1 (VN1203/04) [9]): +/+ |
| B1 | ~0.1 µg/mL | ~0.1 µg/mL | binds | 0.11 | 0.14 | 0.11 | 0.1 | 0.1 | 0.13 | 0.11 | 0.12 | 0.14 | 0.12 | 0.09 | 0.1 | 0.14 | 0.13 | 0.1 | ~0.04 µg/mL | ELISA A450 [14]: 0.09; ELISA A450 [18]: 0.29; ELISA A450 [23]: 0.12; ELISA A450 (M2 peptide SEQ ID NO 273): 0.11; ELISA A450 [29]: 0.26; ELISA A450 [32]: 0.09 |
| B2 | ~0.2 µg/mL | ~0.1 µg/mL | binds | 0.25 | 0.34 | 0.24 | 0.24 | 0.2 | 0.35 | 0.34 | 0.34 | 0.36 | 0.3 | 0.2 | 0.2 | 0.39 | 0.3 | 0.24 | ~0.06 µg/mL |  |
